The target of test [1] is T1, FcγRIIIa on NK cells of human PBMC (human, UniProt P08637 17-254). Briefly: cell-based or functional assay.
Test [2] concerns the target T2, recombinant human His-tagged FcγRIIIa (extracellular domain made at Centocor) (human, UniProt P08637 17-208).
T2 construct: extracellular domain; also called CD16a; recombinant, soluble, human FcγRIIIa
The test can be described thus: ELISA, His-tagged FcγRIIIa captured on HisGrab plate. On the procedure: (§1) FcγRIIIa (CD16a) ELISA—A human FcγRIIIa binding assay was done in ELISA format similar to the assay for FcγRI above. 50 μl of a 2 μg/ml solution of recombinant human His-tagged FcγRIIIa (extracellular domain made at Centocor) in ELISA buffer (PBS, 4 mg/ml BSA, 0.01% Tween-20) was added to each well of HisGrab 96 well plates (Pierce #15142) (Powers G., Notebook 10378, 19-23). The plate was incubated for 3 hours at room temp. The plates were blocked with 200 μl of Starting Block (Pierce #15142) for 30 min, and then washed 3× with 300 μl of wash buffer (PBS, 0.01% Tween-20) on a plate washer. Serial dilutions of the CNTO 860 test samples were made in Starting Block buffer and 50 μl per well of each titration were added in duplicate to the FcγRIIIa-coated plates. The plates were incubated for 1 hour. The plates were washed 3× with 300 μl of wash buffer on a plate washer. 50 μl of a 1:10,000 dilution of HRP-labeled goat F(ab′)2 anti-human IgG F(ab′)2 (Jackson Immunoresearch # 109-036-097) in Starting Block buffer was added to each well. The plates were incubated for 30 minutes. The plates were washed 3× with 300 μl of wash buffer on the plate washer. 50 μl per well TMB substrate (RDI #RDI-TMBSU-1L) was added to each well and developed for 3-5 minutes. The reaction was stopped by adding 100 μl 10.2 N sulfuric acid. The plates were read at OD450 on an Envision plate reader. Antibody concentration vs OD450 values were graphed for each CNTO 860 variant and the antibody concentration needed to achieve an OD450 reading of 0.14 established by interpolation within each data curve.

Test [3] addresses T3, recombinant polyhistidine tagged mouse FcγRI (R&D Systems) (mouse, UniProt P26151 25-297).
T3 construct: Bought; also called murine FcγRI
T3 sequence (looked up): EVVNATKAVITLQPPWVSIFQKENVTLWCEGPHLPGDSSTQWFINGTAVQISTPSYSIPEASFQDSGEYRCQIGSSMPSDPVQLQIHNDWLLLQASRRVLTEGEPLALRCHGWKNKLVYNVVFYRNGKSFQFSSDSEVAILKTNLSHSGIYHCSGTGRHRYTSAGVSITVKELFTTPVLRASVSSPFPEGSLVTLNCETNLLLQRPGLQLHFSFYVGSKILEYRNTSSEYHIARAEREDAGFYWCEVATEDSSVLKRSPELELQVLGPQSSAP
The test can be described thus: ELISA, His-tagged mouse receptor captured on copper-coated plate. On the procedure:
(§2) Commercially-available recombinant polyhistidine tagged mouse FcγRI, FcγRII, FcγRIII, and FcγRIV (R&D Systems) were diluted to 1 μg/ml in PBS and 100 μl/well was captured onto copper-coated plates (Pierce) overnight at 4° C. Plates were washed three times with wash buffer (0.15M NaCl, 0.02% Tween 20). Non-specific binding was blocked using 200 μl/well SuperBlock (Pierce) for 15 minutes at room temperature. Plates were washed three times as above. […] Plates were washed three times as above to remove unbound mAb. CNTO 860 variants that bound to plated receptors were detected using 100 μl/well HRP-labeled goat F(ab′)₂ anti-human IgG F(ab′)₂ (Jackson ImmunoResearch) diluted 1:5,000 in PBS incubated at room temperature for 1 hour. Plates were washed five times using wash buffer as above, and developed using 100 μl/well TMB Stable Stop substrate (Fitzgerald Industries) stopped with 0.5M HCl. Absorbance was detected at 450 nm.
(§3) All binding assays were in an ELISA format, with recombinant soluble receptor captured on coated EIA plates.
Background: ELISA stands for enzyme-linked immunosorbent assay.

Test [4] concerns the target T4, recombinant polyhistidine tagged mouse FcγRII (R&D Systems) (mouse, UniProt P08101 40-217, limits assumed).
T4 construct: Bought; also called FcRII
T4 sequence (looked up): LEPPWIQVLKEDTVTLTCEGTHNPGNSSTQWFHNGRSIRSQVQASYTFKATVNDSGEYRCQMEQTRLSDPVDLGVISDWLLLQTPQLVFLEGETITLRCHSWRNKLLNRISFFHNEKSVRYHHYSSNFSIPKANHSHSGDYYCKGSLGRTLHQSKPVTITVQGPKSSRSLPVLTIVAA
The description is as above. The method, then:
as §2, §3

Test [5] deals with T5, recombinant polyhistidine tagged mouse FcγRIII (R&D Systems) (mouse, UniProt P08508 31-215).
T5 construct: Bought
T5 sequence (looked up): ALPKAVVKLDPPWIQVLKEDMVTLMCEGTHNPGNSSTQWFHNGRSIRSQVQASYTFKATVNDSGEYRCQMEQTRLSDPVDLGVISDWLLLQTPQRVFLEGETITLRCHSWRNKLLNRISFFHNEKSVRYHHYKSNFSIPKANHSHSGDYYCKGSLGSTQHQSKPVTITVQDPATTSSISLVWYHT
The test is described as above. On the procedure: as §2, §3

Test [6] deals with T6, recombinant polyhistidine tagged mouse FcγRIV (R&D Systems) (mouse, UniProt A0A0B4J1G0 21-203).
T6 construct: Bought
T6 sequence: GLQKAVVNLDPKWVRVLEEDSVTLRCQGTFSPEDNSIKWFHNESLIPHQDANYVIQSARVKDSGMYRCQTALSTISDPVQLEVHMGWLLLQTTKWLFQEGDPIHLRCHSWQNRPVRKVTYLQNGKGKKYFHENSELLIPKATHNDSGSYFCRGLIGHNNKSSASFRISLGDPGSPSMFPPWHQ
The description is as above. On the procedure: as §2, §3

Test [7] addresses T7, recombinant human His-tagged FcγRIIa (R&D Systems #1330-CD-050) (human, UniProt P12318 36-218, limits assumed).
T7 construct: Bought; also called CD32a; recombinant, soluble, human FcγRIIa
T7 sequence (looked up): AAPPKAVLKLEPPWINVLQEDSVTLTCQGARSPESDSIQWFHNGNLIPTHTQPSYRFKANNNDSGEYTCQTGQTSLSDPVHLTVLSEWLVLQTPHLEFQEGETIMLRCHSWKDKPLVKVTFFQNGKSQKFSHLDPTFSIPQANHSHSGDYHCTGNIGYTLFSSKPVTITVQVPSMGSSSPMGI
Briefly: AlphaScreen. The method, then:
(§4) FcγRIIa (CD32a) AlphaScreen—Nickel acceptor beads (Perkin Elmer #6760619C) were diluted 1:50 in assay buffer (PBS, pH 7.4, 4 mg/ml BSA, 0.01% Tween-20), and 27.5 μl were added to each well of a Nunc V-bottom polypropylene plate (VWR # 62409-108) (Powers G., Notebook 9006, pp. 169-175, 182-185). A 2.0 μg/ml solution of recombinant human His-tagged FcγRIIa (R&D Systems #1330-CD-050) was prepared in assay buffer and 27.5 μl added to each well of a separate Nunc V bottom polypropylene plate. Titrations of test Abs were prepared in the Nunc V bottom polypropylene plate starting at 30 μg/ml. A 2 μg/ml solution of biotinylated goat F(ab′)₂ anti-human IgG F(ab′)₂ (Jackson Immunoresearch #109-066-097) was prepared in assay buffer and 27.5 μl added to each well of another Nunc V bottom polypropylene plate. A 1:50 dilution of streptavidin donor beads (PerkinElmer # 6760002) was prepared in assay buffer and 27.5 μl added to each well of another Nunc V bottom polypropylene plate. A volume of 5 μl of each reagent was added to the corresponding quadrants of a low-volume, non-binding white 384-well plate (Corning # 3673) in the following order: acceptor beads, FcγRIIa, test Ab, biotinylated anti-human IgG F(ab′)₂, and streptavidin donor beads. The plates were incubated for 30 minutes with shaking and the O.D.s determined using an Envision plate reader.
(§5) FcγRIIb (CD32b) AlphaScreen—The assay was performed as described above for FcγRIIa except that FcγRIIa was replaced with FcγRIIb (R&D Systems #1875-CD-050).

For test [8], the target named is T1, FcγRIIIa on NK cells of human PBMC. The test can be described thus: cell-based or functional assay. The source holds these as a separate data set.
Test [9] has as its target T8, recombinant human FcγRIIb (R&D Systems #1875-CD-050) (human, UniProt P31994 46-217, limits assumed).
T8 construct: Bought; also called CD32b; recombinant, soluble, human FcγRIIb
T8 sequence (looked up): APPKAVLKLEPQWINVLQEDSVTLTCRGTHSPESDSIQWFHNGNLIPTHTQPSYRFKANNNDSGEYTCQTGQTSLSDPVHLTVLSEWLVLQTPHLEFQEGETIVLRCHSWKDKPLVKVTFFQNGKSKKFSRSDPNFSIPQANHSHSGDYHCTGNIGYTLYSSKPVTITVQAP
Briefly: AlphaScreen. On the procedure:
as §4, §5
In general terms: Alpha assays give light when donor and acceptor beads are brought close together.

The target in test [10] is T9, recombinant human His-tagged FcγRI (extracellular domain, R&D Systems #1257-FC-050) (human, UniProt P12314 16-292).
T9 construct: extracellular domain; Bought; also called CD64; recombinant, soluble, human FcγRI
T9 sequence (P12314 16-292): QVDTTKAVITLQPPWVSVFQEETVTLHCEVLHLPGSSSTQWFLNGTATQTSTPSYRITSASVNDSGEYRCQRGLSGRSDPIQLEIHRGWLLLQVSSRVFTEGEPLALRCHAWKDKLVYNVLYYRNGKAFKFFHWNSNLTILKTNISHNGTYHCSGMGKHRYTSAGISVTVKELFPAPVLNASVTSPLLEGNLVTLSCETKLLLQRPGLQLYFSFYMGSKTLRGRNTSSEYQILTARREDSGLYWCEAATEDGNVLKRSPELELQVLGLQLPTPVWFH
Briefly: ELISA. On the procedure:
FcγRI (CD64) ELISA —50 μl of a 1 μg/ml solution of recombinant human His-tagged FcγRI (extracellular domain, R&D Systems #1257-FC-050) in ELISA buffer (PBS, pH 7.4, 4 mg/ml BSA, 0.01% Tween-20) was added to each well of HisGrab 96 well plates (Pierce #15142) (Powers G., Notebook 9006, pp. 166-168, 180-181). The plate was incubated with shaking for 3 hours. The plates were washed 3× with 300 μl of wash buffer (PBS, 0.01% Tween-20) on a plate washer. Serial dilutions of the CNTO860 antibody Fc-variant samples were made in ELISA buffer and 50 μl per well of each titration were added in duplicate to the FcγRI-coated plates. The plates were incubated with shaking for 1 hour. The plates were washed 3× with 300 μl of wash buffer on a plate washer. 50 μl of a 1:10,000 dilution of HRP-labeled goat F(ab′)₂ anti-human IgG F(ab′)₂ (Jackson Immunoresearch # 109-036-097) in ELISA buffer was added to each well. The plates were incubated with shaking for 30 minutes. The plates were washed 3× with 300 μl of wash buffer on the plate washer. 50 μl per well TMB substrate (RDI #RDI-TMBSU-1L) was added to each well and developed for 5 minutes. The reaction was stopped by adding 100 μl 0.2 N sulfuric acid. The plates were read at OD450 on an Envision plate reader.
as §1, with “minutes.” for “minutes. The plates were washed 3× with 300 μl of wash buffer on the plate washer. 50 μl per well TMB substrate (RDI #RDI-TMBSU-1L) was added to each well and developed for 3-5 minutes. The reaction was stopped by adding 100 μl 10.2 N sulfuric acid. The plates were read at OD450 on an Envision plate reader. Antibody concentration vs OD450 values were graphed for each CNTO 860 variant and the antibody concentration needed to achieve an OD450 reading of 0.14 established by interpolation within each data curve.”

T1 sequence (P08637 17-254): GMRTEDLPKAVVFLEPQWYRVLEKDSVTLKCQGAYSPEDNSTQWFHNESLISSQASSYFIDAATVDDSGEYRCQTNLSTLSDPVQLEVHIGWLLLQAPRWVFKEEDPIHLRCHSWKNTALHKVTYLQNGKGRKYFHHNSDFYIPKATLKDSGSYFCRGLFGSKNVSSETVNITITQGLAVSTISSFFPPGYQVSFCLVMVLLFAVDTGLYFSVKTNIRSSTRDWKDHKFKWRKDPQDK
T2 sequence (P08637 17-208): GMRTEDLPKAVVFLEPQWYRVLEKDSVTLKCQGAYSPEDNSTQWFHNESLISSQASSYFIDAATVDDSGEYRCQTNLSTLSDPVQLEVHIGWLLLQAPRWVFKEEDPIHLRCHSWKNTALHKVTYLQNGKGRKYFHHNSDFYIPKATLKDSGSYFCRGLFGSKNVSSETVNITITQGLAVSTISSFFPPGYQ

B1: CHO-CNTO 860 I332E/V264I (antibody, human IgG1, kappa)
heavy: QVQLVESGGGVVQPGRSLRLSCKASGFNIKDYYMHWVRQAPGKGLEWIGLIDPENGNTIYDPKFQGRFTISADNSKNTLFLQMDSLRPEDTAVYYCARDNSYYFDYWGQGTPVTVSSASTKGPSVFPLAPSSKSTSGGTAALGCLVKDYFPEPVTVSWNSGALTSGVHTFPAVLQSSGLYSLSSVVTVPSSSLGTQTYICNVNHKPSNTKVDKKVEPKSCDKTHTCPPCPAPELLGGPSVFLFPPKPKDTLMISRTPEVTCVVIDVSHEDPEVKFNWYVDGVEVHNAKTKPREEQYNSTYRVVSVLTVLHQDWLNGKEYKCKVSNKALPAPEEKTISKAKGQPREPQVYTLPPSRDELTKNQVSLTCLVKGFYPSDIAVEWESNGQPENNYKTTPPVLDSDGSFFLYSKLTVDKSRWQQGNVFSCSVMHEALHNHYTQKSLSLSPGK
light: DIQMTQSPSSLSASVGDRVTITCKASQDIRKYLNWYQQKPGKAPKLLIYYATSLADGVPSRFSGSGSGTDYTFTISSLQPEDIATYYCLQHGESPYTFGQGTKLEITRTVAAPSVFIFPPSDEQLKSGTASVVCLLNNFYPREAKVQWKVDNALQSGNSQESVTEQDSKDSTYSLSSTLTLSKADYEKHKVYACEVTHQGLSSPVTKSFNRGEC
modifications: Heavy chain N297 carries the CHO-type N-linked glycan (about 95% fucosylated); not carried by the letters.
notes: IgG1/kappa Fc variant; transiently expressed in CHO cells (p4187/p4146); EU numbering; also called V264I/I332E (CHO cell-derived); copies: 2 + 2
On to B1, for which the “EC25 (ng/ml), ADCC of HCT116 cells by human PBMC” value in [1] turned out to be 1 ng/mL. Moreover, the “concentration (ng/ml) required for an O.D. value of 0.14” value in test [2] came to 900 ng/mL. Moreover, the “ECOD1 (concentration required for an O.D. value of 1.0)” value was 25800 ng/mL in [3], 1700 ng/mL in [4], 2000 ng/mL in test [5] and 8 ng/mL in test [6].

B2: CNTO 860 A330I/I332E (antibody, human IgG1, kappa)
heavy: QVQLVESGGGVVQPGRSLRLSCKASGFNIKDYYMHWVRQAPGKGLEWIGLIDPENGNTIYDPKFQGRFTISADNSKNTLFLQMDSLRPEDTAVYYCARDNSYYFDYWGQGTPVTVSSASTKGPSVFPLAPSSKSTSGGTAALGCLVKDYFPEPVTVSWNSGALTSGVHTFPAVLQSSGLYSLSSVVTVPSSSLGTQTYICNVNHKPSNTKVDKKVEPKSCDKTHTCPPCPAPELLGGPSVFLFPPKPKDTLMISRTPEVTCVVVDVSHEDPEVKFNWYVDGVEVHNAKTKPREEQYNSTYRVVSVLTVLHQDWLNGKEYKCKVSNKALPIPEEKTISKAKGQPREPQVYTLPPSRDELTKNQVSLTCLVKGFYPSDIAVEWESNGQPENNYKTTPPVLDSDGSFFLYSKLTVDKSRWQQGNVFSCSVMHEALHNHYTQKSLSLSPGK
light: B1 light
modifications: N-linked glycan at Asn297 of the heavy chain (fucose content depends on host cell, CHO or YB2/0); not carried by the letters
notes: also called A330I/I332E double mutant; A330I/I332E variant; copies: 2 + 2
In the case of B2, in test [7], the “fold higher concentration than WT to give an OD signal of 200,000” value was approximately 20 fold. The “fold activity in the ADCC assays” value in test [8] was approximately 10 fold.

B3: CNTO 860 S239D/I332E (antibody, human IgG1, kappa)
heavy: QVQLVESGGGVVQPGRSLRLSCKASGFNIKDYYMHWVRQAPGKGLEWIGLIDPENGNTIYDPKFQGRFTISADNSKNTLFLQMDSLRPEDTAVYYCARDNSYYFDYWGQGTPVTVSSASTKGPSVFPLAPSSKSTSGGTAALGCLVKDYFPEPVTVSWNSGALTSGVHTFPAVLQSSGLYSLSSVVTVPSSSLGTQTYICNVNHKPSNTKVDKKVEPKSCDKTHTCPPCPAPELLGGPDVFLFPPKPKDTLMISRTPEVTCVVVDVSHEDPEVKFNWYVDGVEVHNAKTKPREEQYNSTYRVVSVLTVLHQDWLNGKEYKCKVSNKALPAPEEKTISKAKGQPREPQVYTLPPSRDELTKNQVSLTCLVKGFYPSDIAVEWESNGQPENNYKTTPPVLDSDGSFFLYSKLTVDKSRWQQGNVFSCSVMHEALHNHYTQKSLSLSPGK
light: B1 light
modifications: N-linked glycan at Asn297 of the heavy chain (fucose content depends on host cell, CHO or YB2/0); not carried by the letters
notes: also called S239D/I332E double mutant; copies: 2 + 2
In the case of B3, the “fold change in binding against WT (enhanced)” value in test [9] is approximately 6 fold.

B4: CNTO 860 I332E (antibody)
heavy: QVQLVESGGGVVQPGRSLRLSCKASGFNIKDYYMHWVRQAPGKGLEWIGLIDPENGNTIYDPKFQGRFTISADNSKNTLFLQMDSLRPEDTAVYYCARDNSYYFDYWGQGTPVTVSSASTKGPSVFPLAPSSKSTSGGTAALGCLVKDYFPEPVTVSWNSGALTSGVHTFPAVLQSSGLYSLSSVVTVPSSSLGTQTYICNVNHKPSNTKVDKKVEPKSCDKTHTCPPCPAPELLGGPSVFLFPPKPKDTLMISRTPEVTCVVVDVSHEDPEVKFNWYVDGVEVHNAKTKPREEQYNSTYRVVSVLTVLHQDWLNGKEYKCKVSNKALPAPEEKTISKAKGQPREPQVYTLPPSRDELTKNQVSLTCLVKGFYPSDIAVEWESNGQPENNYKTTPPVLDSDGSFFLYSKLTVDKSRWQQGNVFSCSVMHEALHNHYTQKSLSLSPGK
light: B1 light
modifications: N-linked glycan at heavy chain Asn297 (host cell not specified in these sentences); not carried by the letters
notes: also called I332E variant; I332E single mutant; copies: 2 + 2
B4: the “fold change in binding against WT (enhanced)” value in test [10] amounted to 2 fold.

B5: CNTO 860 A330I (antibody)
heavy: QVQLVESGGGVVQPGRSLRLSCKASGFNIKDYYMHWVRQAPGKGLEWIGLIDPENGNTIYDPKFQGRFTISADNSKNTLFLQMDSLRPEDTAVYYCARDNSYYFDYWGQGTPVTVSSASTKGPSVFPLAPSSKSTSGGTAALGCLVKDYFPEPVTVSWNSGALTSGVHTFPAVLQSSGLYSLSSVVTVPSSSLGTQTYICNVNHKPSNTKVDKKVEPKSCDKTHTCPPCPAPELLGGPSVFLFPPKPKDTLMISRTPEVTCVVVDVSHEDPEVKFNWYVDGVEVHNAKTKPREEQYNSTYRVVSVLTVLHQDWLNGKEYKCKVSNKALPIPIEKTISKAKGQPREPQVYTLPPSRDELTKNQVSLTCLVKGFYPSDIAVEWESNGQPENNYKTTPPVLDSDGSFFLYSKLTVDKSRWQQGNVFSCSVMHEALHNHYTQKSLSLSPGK
light: B1 light
modifications: N-linked glycan at Asn297 of the heavy chain (fucose content depends on host cell, CHO or YB2/0); not carried by the letters
notes: also called A330I variant; A330I single mutant; copies: 2 + 2
On to B5, for which the “fold change in binding against WT (reduced)” value in test [9] is 500 fold.

The record behind these values is patent publication US20080311034A1 (published 2008).
